Biological target: T1, H2-K^b (Mus musculus, UniProt P01901)
T1 sequence (P01901 22-369): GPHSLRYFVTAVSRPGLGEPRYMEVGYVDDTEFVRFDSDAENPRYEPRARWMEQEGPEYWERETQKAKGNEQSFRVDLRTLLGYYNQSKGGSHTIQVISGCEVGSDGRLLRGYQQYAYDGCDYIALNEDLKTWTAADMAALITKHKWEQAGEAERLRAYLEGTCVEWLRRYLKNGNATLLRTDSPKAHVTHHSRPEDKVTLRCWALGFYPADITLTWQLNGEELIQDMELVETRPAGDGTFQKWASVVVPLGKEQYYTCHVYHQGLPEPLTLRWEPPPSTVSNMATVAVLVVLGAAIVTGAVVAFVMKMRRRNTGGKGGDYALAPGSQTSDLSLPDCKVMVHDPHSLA
T1 sequence (P01887 21-119 partner): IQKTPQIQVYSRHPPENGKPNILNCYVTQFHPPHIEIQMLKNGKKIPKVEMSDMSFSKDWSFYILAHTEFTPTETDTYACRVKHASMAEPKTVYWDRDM
Assay: Peptide binding assay (assembly/stabilization assay in RMA-S cell lysate)
Details: in vitro binding assay, compared with positive control peptide SEV
Protocol: Binding of each peptide to H2-K^b was performed using the assembly assay as described (29). This assay is based on the observation that, in a detergent lysate of RMA-S cells, K^b molecules are unstable and dissociate after an overnight incubation at 4° C. unless a stabilising (K^b-binding) peptide is added at the time of lysis. Only stabilised K^b molecules can therefore be recovered by immunoprecipitation with mAb Y3 after overnight incubation. The amount of recovered K^b is directly proportional to the amount of peptide bound, and the concentration of peptide required to effect 50% maximal recovery represents an approximate binding affinity (29). Recovery of H2-K^b heavy chains (HC) was quantitated after immunoprecipitation and SDS PAGE using AIDA (Fuji).

Sequence	binding to H2-K^b
LNIYYRRL [peptide 2]	comparable to the positive control
SNWYFNHL [peptide 1]	comparable to the positive control

Reference: US7816334B2, “Materials and methods relating to immune responses to fusion proteins” (Cancer Research Technology Limited, priority 2000, dated 2010)
